Experimental data published in paper PMC4520625.

Legend:
[1] = biological target: full-length human galectin-3 (human) (UniProt P17931); assay: ITC
[2] = biological target: galectin-3 carbohydrate recognition domain (CRD) obtained by proteolytic truncation (human); assay: ITC

Sequence of full-length human galectin-3 (human) (P17931 whole entry, the tested form may be a part): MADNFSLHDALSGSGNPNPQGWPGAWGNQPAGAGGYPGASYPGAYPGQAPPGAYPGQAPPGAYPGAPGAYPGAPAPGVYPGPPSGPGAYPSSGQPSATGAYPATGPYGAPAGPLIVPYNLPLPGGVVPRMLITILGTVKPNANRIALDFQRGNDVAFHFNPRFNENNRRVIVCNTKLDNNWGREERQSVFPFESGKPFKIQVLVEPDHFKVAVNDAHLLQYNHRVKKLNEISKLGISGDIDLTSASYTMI

Which results are given for “MUC1-Ser5 glycopeptide carrying the TF antigen”?
dH [1]: -1.33 kcal/mol; dH [2]: -4.11 kcal/mol
